This is an account of results in publication PMC9429925.

The target in test [1] is DcuR (UniProt P0AD01). Briefly: size exclusion chromatography with SDS-PAGE of fractions. The note with it: reference: PASC-Kin without ATP, mixed with DcuR; sites H349. In general terms: In gel filtration, larger molecules generally elute earlier.
Test [2] deals with OmpR (Escherichia coli) (UniProt P0AA16). The note with it: cited from earlier work.
The target in test [3] is FixJ (Rhizobium meliloti) (UniProt P10958). The note with it: cited from earlier work.

pKd: −log10 of the molar value.

Chain of FixJ (Rhizobium meliloti) (P10958 whole entry): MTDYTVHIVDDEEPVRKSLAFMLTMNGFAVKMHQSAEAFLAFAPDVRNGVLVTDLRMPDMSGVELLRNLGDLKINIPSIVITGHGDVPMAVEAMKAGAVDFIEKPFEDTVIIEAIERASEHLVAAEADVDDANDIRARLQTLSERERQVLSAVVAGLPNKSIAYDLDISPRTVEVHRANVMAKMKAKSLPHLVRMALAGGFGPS
Chain of OmpR (Escherichia coli) (P0AA16 whole entry): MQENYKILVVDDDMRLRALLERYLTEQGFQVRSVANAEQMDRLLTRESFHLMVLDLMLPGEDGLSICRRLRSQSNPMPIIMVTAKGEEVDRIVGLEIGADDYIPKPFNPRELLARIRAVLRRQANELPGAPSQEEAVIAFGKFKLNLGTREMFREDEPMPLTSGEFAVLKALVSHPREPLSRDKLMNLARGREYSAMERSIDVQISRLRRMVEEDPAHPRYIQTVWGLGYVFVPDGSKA
Chain of FixL heme-binding and kinase domains (P10955 127-505): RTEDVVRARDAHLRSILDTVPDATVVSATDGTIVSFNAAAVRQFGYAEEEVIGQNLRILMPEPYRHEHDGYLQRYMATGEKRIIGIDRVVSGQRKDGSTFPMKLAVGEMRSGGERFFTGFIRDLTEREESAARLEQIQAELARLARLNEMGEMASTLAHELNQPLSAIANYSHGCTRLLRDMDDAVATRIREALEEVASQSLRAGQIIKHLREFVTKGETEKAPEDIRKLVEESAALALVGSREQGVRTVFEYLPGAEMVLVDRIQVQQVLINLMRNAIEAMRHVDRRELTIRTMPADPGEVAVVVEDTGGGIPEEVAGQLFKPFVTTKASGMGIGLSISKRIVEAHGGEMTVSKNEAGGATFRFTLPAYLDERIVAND
Chain of EnvZ cytoplasmic portion (P0AEJ4 180-450): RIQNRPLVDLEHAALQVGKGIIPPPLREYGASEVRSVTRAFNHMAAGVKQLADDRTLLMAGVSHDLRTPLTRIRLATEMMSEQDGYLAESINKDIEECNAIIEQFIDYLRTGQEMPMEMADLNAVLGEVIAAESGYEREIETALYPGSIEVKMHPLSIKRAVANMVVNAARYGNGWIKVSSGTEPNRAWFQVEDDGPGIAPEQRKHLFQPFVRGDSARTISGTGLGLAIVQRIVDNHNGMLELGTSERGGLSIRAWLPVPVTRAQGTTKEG

On to “DcuS (cytoplasmic part: PASC-Kin) PASC-Kin, 212-539 (from UniProt P0AEC8) PASC-Kin pre-incubated with ATP, mixed with DcuR”, for which, in test [1], the “other: mol DcuR per mol PASC-Kin in complex peak” value was “stronger; reference approximately 0.11”.

Turning to “EnvZ cytoplasmic portion (from UniProt P0AEJ4)”, the pKd in test [2] was 6.37.

As to “FixL heme-binding and kinase domains (from UniProt P10955)”, the pKd in test [3] was 5.40.

Usually pKd stands for the negative decadic logarithm of the Kd, by convention in mol/L.
